Assays:
[1] = target: T1, protransglutaminase of Streptoverticillium mobaraense IFO13819 (pro-MTG) (UniProt P81453)
T1 sequence: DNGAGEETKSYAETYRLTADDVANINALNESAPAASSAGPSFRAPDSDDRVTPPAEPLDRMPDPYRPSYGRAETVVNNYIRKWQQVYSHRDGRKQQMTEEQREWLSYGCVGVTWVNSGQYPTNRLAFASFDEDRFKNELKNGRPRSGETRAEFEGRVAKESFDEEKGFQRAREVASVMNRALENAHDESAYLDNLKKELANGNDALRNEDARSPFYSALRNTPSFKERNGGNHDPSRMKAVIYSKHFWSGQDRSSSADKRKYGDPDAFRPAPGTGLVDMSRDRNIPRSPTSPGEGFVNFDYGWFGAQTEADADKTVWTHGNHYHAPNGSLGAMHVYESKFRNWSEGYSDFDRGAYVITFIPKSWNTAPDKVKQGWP

[2] = target: T2, Streptomyces subtilisin inhibitor (SSI) derived from actinomycetes (UniProt P01006)
T2 sequence: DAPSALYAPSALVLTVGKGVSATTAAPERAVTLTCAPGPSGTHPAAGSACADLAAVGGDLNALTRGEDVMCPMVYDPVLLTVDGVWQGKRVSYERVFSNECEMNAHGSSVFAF

Row | Substance | conversion of pro-MTG to mature MTG (SDS-PAGE time course; TG activity by the hydroxamate method), substrate:enzyme = 200:1 [1] | amount of protease needed to convert pro-MTG to active MTG (TG activity by the hydroxamate method, MTG protein by reverse phase chromatography) [1] | cleavage points (HPLC separation and sequencing of peptide fragments) [1] | relative activity (Gly-Pro-Ser-Phe-Arg-Ala-Pro-Asp-Ser cleavage activity, absence of compounds = 100%) [2] | cleavage points (HPLC separation and sequencing of peptide fragments) (insulin B) | amount of protease needed to convert pro-MTG to active MTG (TG activity by the hydroxamate method) [1]
1 | neutral metalloprotease SGMP II from Streptomyces griseus | pro-MTGs were converted to the mature forms, and the produced MTGs were not reduced even after a long-term reaction | – | – | – | – | –
2 | neutral metalloprotease SVP70 from Streptoverticillium mobaraense IFO13819 | pro-MTGs were converted to the mature forms, and the produced MTGs were not reduced even after a long-term reaction | SVP could convert pro-MTG to active MTG with an amount as small as 1/500 of the substrate | cleaved before (at N-terminal side of) especially Phe, often Leu, sometimes Tyr, Trp, Ile, Val | underwent strong inhibitory action | cleaved before (at N-terminal side of) especially Phe, often Leu, sometimes Tyr, Trp, Ile, Val | –
3 | serine protease SAM-P45 (Streptomyces albogriseolus) | – | when SAM-P45 was added at an amount of 1/10 of the substrate, the conversion into the active MTG was observed, but a decrease in the amount and the activity of MTG-protein was observed | – | – | – | generated only insufficient transglutaminase activity even at an amount of 1/50 of the substrate, and that the complete conversion to the active form was not observed

Source: patent US20100159560
